Data: paper doi:10.1101/2023.09.29.560207 (bioRxiv, 2023)

B1: His-MBP-RGNEF^1–275 (domain or fragment, human, UniProt Q8N1W1 1-275, looked up)
chain: MELSCSEAPLYGQMMIYAKFDKNVYLPEDAEFYFTYDGSHQRHVMIAERIEDNVLQSSVPGHGLQETVTVSVCLCSEGYSPVTMGSGSVTYVDNMACRLARLLVTQANRLTACSHQTLLTPFALTAGALPALDEELVLALTHLELPLEWTVLGSSSLEVSSHRESLLHLAMRWGLAKLSQFFLCLPGGVQALALPNEEGATPLDLALREGHSKLVEDVTNFQGRWSPSFSRVQLSEEASLHYIHSSETLTLTLNHTAEHLLEADIKLFRKYFWDR
B2: His-RRM-1 (domain or fragment, human, UniProt Q13148 101-191, looked up)
chain: QKTSDLIVLGLPWKTTEQDLKEYFSTFGEVLMVQVKKDLKTGHSKGFGFVRFTEYETQVKVMSQRHMIDGRWCDCKLPNSKQSQDEPLRSR

How the values were obtained:
His-MBP-RGNEF^1–275 = target: B1; assay: SPR
His-GST-TDP-43^wt = His-GST-TDP-43^wt (human, UniProt Q13148 1-414); assay: SPR
Sequence of His-GST-TDP-43^wt (Q13148 whole entry): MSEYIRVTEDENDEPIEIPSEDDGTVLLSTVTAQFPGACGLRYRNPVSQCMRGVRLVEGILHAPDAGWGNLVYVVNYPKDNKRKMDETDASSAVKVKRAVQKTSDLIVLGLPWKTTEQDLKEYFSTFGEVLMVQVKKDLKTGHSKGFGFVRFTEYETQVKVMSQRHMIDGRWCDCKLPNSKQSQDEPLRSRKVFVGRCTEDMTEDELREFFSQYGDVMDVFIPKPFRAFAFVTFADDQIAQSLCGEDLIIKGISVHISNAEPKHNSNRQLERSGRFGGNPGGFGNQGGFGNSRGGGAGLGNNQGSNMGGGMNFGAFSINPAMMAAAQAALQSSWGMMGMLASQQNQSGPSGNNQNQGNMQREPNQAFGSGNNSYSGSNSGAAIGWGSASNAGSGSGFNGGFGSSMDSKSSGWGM

## His-TDP-43^1–296 (from UniProt Q13148 1-261) (domain or fragment)
His-MBP-RGNEF^1–275
  Kd: 4.11 µM

## B1
His-GST-TDP-43^wt
  Kd: 1780 nM

## B2
His-MBP-RGNEF^1–275
  binding result: binds
